Data on one molecule can be found in paper PMC8016844, “Grb2 binding induces phosphorylation-independent activation of Shp2” (Communications Biology, 2021).

This experiment deals with T1, Shp2 N-terminal SH2 domain (Shp2_(NSH2)) (UniProt Q06124 6-102).
T1 construct: Shp2 (PTPN11), N-terminal SH2 domain; Atto 488 labelled in MST; uniformly 15N-labelled in the NMR titration; Perturbed residues up to Y100 are named, so the construct reaches at least residue 100; also called Shp2-NSH2 domain; source: E. coli BL21 (DE3), pET28b, purified (Talon buffers, Superdex SD75)
T1 sequence (looked up): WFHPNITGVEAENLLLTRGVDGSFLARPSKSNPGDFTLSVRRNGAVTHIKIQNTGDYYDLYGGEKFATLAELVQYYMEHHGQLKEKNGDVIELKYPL
Description: MST; target protein labelled with Atto 488 NHS ester, 100 nM; unlabelled ligand serially diluted; Monolith NT.115; 25 °C; 20 mM HEPES pH 7.5, 150 mM NaCl, 0.5 mM TCEP, 0.005% Tween 20. The note with it: both partners purified.

B1: isolated NSH3 domain of Grb2 (Grb2_(NSH3)) (domain or fragment)
chain: MEAIAKYDFKATADDELSFKRGDILKVLNEECDQNWYKAELNGKDGFIPKNYIEMKPH
Usually Kd stands for a measure of binding affinity in units of concentration. A higher Kd goes with lower affinity. As for B1, the Kd was 422 ± 21.5 µM.
